Results published in the supplement of paper PMC9112550, “Optimization of the antimicrobial peptide Bac7 by deep mutational scanning” (BMC Biology, 2022).

Tested on: Escherichia coli TOP10
Test: shrunken log2 fold change of peptide-encoding DNA abundance (4.5 h post-induction vs induction); higher = less antimicrobial activity (less host growth inhibition)
Settings: time post-induction: 4.5 h; library: site-saturation at positions 5, 18, 19, 20
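Also: peptides expressed intracellularly from a pBAD plasmid library in pooled LB shake-flask culture, induced with 0.3% L-arabinose, DNA abundance read by NGS, three biological replicates, DESeq2 with apeglm shrinkage.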

Sequence	shrunken log2 fold change
RRIRRRPPRLPRPRPRPANTPRP	0.0917
RRIRVRPPRLPRPRPRPDSTPRP	-0.0391
RRIRDRPPRLPRPRPRPDKRPRP	0.00902
RRIRPRPPRLPRPRPRPAKFPRP	0.0407
RRIRRRPPRLPRPRPRPAQTPRP	0.348
RRIRQRPPRLPRPRPRPRGFPRP	0.0677
RRIRNRPPRLPRPRPRPAFLPRP	-0.0726
RRIRLRPPRLPRPRPRPEHLPRP	-0.118
RRIRFRPPRLPRPRPRPGACPRP	-0.0223
RRIRPRPPRLPRPRPRPCCSPRP	-0.556
RRIRRRPPRLPRPRPRPWLNPRP	-0.0295
RRIRWRPPRLPRPRPRPAEYPRP	0.101
RRIRTRPPRLPRPRPRPSNQPRP	-0.14
RRIRQRPPRLPRPRPRPLRVPRP	0.298
RRIRMRPPRLPRPRPRPPEWPRP	0.5
RRIRGRPPRLPRPRPRPFCMPRP	0.0902
RRIRGRPPRLPRPRPRPFWRPRP	0.297
RRIRRRPPRLPRPRPRPATRPRP	0.226
RRIRQRPPRLPRPRPRPKFIPRP	-0.0852
RRIRARPPRLPRPRPRPCNGPRP	-0.139
RRIRLRPPRLPRPRPRPSLQPRP	-0.348
RRIRMRPPRLPRPRPRPACMPRP	0.64
RRIRFRPPRLPRPRPRPFCEPRP	-0.124
RRIRHRPPRLPRPRPRPAMRPRP	1.1
RRIRWRPPRLPRPRPRPHVPPRP	-0.161

Sequence	shrunken log2 fold change
RRIRIRPPRLPRPRPRPMPPPRP	-0.0836
RRIRQRPPRLPRPRPRPYIFPRP	-0.547
RRIRSRPPRLPRPRPRPNTWPRP	-0.637
RRIRFRPPRLPRPRPRPPESPRP	1.13
RRIRFRPPRLPRPRPRPGMSPRP	0.0155
RRIRARPPRLPRPRPRPNQHPRP	-0.124
RRIRPRPPRLPRPRPRPFMNPRP	-0.198
RRIRSRPPRLPRPRPRPINIPRP	-0.589
RRIRARPPRLPRPRPRPQIGPRP	3.24
RRIRIRPPRLPRPRPRPNVVPRP	-0.508
RRIRYRPPRLPRPRPRPMNHPRP	-0.262
RRIRRRPPRLPRPRPRPPIYPRP	0.786
RRIRERPPRLPRPRPRPWSMPRP	-0.707
RRIRRRPPRLPRPRPRPSPRPRP	1.03
RRIRKRPPRLPRPRPRPPTHPRP	0.42
RRIRIRPPRLPRPRPRPDCIPRP	0.0653
RRIRKRPPRLPRPRPRPQHWPRP	0.474
RRIRERPPRLPRPRPRPANPPRP	-0.0315
RRIRDRPPRLPRPRPRPILDPRP	0.0609
RRIRMRPPRLPRPRPRPCWFPRP	-0.0997
RRIRMRPPRLPRPRPRPTRAPRP	1.42
RRIRNRPPRLPRPRPRPSDQPRP	0.0574
RRIRERPPRLPRPRPRPNQSPRP	-0.236
RRIRVRPPRLPRPRPRPEYKPRP	-0.501
RRIRYRPPRLPRPRPRPATDPRP	-0.327
